From article PMC3084762, “Distinct Properties of Hexameric but Functionally Conserved Mycobacterium tuberculosis Transcription-Repair Coupling Factor” (PLoS ONE, 2011)

Experiments:
[1] = target: T1, NTD of MtbMfd (Mycobacterium tuberculosis, UniProt P9WMQ5)
T1 construct: gene mfd

[2] = target: the molecule itself; test: SEC
[3] = target: the molecule itself; test: dynamic light scattering

Molecule: Nc1ncnc2c1ncn2[C@@H]1O[C@H](COP(=O)(O)OP(=O)(O)OP(=O)(O)O)[C@@H](O)[C@H]1O [ATP]
- Ksv [1]: 526 µM

B1: Mycobacterium tuberculosis Mfd (transcription-repair coupling factor), full length, His-tagged (natural protein)
chain: MTAPGPACSDTPIAGLVELALSAPTFQQLMQRAGGRPDELTLIAPASARLLVASALARQGPLLVVTATGREADDLAAELRGVFGDAVALLPSWETLPHERLSPGVDTVGTRLMALRRLAHPDDAQLGPPLGVVVTSVRSLLQPMTPQLGMMEPLTLTVGDESPFDGVVARLVELAYTRVDMVGRRGEFAVRGGILDIFAPTAEHPVRVEFWGDEITEMRMFSVADQRSIPEIDIHTLVAFACRELLLSEDVRARAAQLAARHPAAESTVTGSASDMLAKLAEGIAVDGMEAVLPVLWSDGHALLTDQLPDGTPVLVCDPEKVRTRAADLIRTGREFLEASWSVAALGTAENQAPVDVEQLGGSGFVELDQVRAAAARTGHPWWTLSQLSDESAIELDVRAAPSARGHQRDIDEIFAMLRAHIATGGYAALVAPGTGTAHRVVERLSESDTPAGMLDPGQAPKPGVVGVLQGPLRDGVIIPGANLVVITETDLTGSRVSAAEGKRLAAKRRNIVDPLALTAGDLVVHDQHGIGRFVEMVERTVGGARREYLVLEYASAKRGGGAKNTDKLYVPMDSLDQLSRYVGGQAPALSRLGGSDWANTKTKARRAVREIAGELVSLYAKRQASPGHAFSPDTPWQAELEDAFGFTETVDQLTAIEEVKADMEKPIPMDRVICGDVGYGKTEIAVRAAFKAVQDGKQVAVLVPTTLLADQHLQTFGERMSGFPVTIKGLSRFTDAAESRAVIDGLADGSVDIVIGTHRLLQTGVRWKDLGLVVVDEEQRFGVEHKEHIKSLRTHVDVLTMSATPIPRTLEMSLAGIREMSTILTPPEERYPVLTYVGPHDDKQIAAALRRELLRDGQAFYVHNRVSSIDAAAARVRELVPEARVVVAHGQMPEDLLETTVQRFWNREHDILVCTTIVETGLDISNANTLIVERADTFGLSQLHQLRGRVGRSRERGYAYFLYPPQVPLTETAYDRLATIAQNNELGAGMAVALKDLEIRGAGNVLGIEQSGHVAGVGFDLYVRLVGEALETYRDAYRAAADGQTVRTAEEPKDVRIDLPVDAHLPPDYIASDRLRLEGYRRLAAASSDREVAAVVDELTDRYGALPEPARRLAAVARLRLLCRGSGITDVTAASAATVRLSPLTLPDSAQVRLKRMYPGAHYRATTATVQVPIPRAGGLGAPRIRDVELVQMVADLITALAGKPRQHIGITNPSPPGEDGRGRNTTIKERQP
notes: also called MtbMfd; His-tagged MtbMfd; not shown: His tag, N-terminal, kept
- stoichiometry N [2]: 6
- stoichiometry N [3]: ~6

B2: purified untagged or native MtbMfd (natural protein)
chain: B1 chain
notes: also called untagged MtbMfd
- stoichiometry N [2]: 6

B3: MtbMfd, endogenous in M. tuberculosis H37Ra cell lysate (natural protein)
chain: B1 chain
- stoichiometry N [2]: 6
